Data on one substance can be found in article PMC4619609.

What all share (assay): ELISA
In general terms: ELISA stands for enzyme-linked immunosorbent assay.

The target of assay [1] is mAb 1331 (CD4bs). As to conditions: mAbs (10 µg/ml); gp120s from virus lysates; parent: est. 2.0; read off a plot.
In assay [2] the target is recombinant CD4-IgG2 protein (UniProt P01730). As to conditions: 10 µg/ml; gp120s from virus lysates; parent: est. 3.7; read off a plot.
In assay [3] the target is mAb 1357 (V2i). As to conditions: mAbs (10 µg/ml), gp120s from virus lysates.
Assay [4] deals with mAb 2158 (V2i). As to conditions: mAbs (10 µg/ml); gp120s from virus lysates; parent: est. 2.0; read off a plot.
The target in assay [5] is mAb 1393A (V2i). As to conditions: mAbs (10 µg/ml); gp120s from virus lysates; parent: est. 2.2; read off a plot.
For assay [6], the target named is mAb 1361 (V2i). As to conditions: mAbs (10 µg/ml); gp120s from virus lysates; parent: est. 2.8; read off a plot.
Assay [7] concerns the target mAb 830A (V2i). As to conditions: mAbs (10 µg/ml); gp120s from virus lysates; parent: est. 2.1; read off a plot.
The target in assay [8] is mAb 1418 (Ctrl). As to conditions: mAbs (10 µg/ml); gp120s from virus lysates; parent: est. 0.21; read off a plot.
Assay [9] concerns the target mAb 2219 (V3). As to conditions: mAbs (10 µg/ml); gp120s from virus lysates; parent: est. 2.2; read off a plot.

On to gp120 of ZM109 WT R153E, for which the response in assay [1] is 1.9 OD 405nm; in assay [2] it was 3.6 OD 405nm; in [3] (parent: est. 0.46, read off a plot) it was 1.5 OD 405nm; in [4], 1.7 OD 405nm; in assay [5], 2.4 OD 405nm; in [6] it was 2.3 OD 405nm. The values for the response in assay [7], in [8] and in assay [9] were 2 OD 405nm, 0.17 OD 405nm and 2.6 OD 405nm, respectively. The ratio to parent in assay [3] was 3 x.
